Measurements from patent US20230287454.

Tests used:
Experiment in all cases: cell_activity
[1] = biological target: TRAC TALEN Right (synthetic construct) (UniProt Q56830); settings: TCR-negative T cells, paired with TRAC left, simultaneous electroporation
[2] = biological target: CD52 TALEN Right (synthetic construct) (UniProt Q56830); settings: CD52-negative T cells, paired with CD52 left, simultaneous electroporation
[3] = biological target: CD38 TALEN Left (synthetic construct) (UniProt Q56830); settings: CD38-negative T cells, paired with CD38 right, simultaneous electroporation
[4] = tested on: CD52 TALEN Left (synthetic construct); settings: CD52-negative T cells, paired with CD52 right, simultaneous electroporation
[5] = biological target: TRAC TALEN Left (synthetic construct) (UniProt Q56830); settings: TCR-negative T cells, paired with TRAC right, simultaneous electroporation with CD38 and CD52 TALEN
[6] = biological target: CD38 TALEN Right (synthetic construct) (UniProt Q56830); settings: CD38-negative T cells, paired with CD38 left, simultaneous electroporation

TRAC right half-site
activity [1]: 67.8%

CD52 right half-site
activity [2]: 57%

CD38 left half-site
activity [3]: 66.1%

CD52 left half-site
activity [4]: 57%

TRAC left half-site
activity [5]: 67.8%

CD38 right half-site
activity [6]: 66.1%
